The target in assay [1] is T1, fully sulfated and glycosylated human PSGL-1 19.ek.Fc fusion protein (human, not fully specified; sulfated tyrosines (y in QATEyEyLDyDFLPETEPPRPMMDDDDK, corresponding to Tyr46, Tyr48 and Tyr51); SLe^x-capped O-glycan; biotinylated in the assays).
T1 construct: also called PSGL-19.ek.Fc; biotinylated PSGL-1 19.ek.Fc
T1 chain: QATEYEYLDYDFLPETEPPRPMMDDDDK
As to the kind of experiment: BIAcore 2000, biotinylated PSGL-1 19.ek.Fc on streptavidin chip, antibody injected at 0-100 nM. The protocol:
Surface plasmon resonance binding analysis. A BIAcore 2000 instrument (BIAcore AB, Uppsala, Sweden) was used to analyze the interactions between the identified antibodies and biotinylated PSGL-1 19.ek.Fc or derived peptides. Binding experiments were performed at 25° C. using streptavidin-coated sensor chips (BIAcore) and HBS-P buffer (20 mM HEPES [pH 7.4], 150 mM NaCl and 0.005% polysorbate 20 v/v) adjusted to 1 mM for both CaCl₂ and MgCl₂. The streptavidin on the sensor surfaces were condition with three one-minute injections of a solution containing 1 M NaCl and 25 mM NaOH. The chips were regenerated with 5 μL of 0.1% TFA and equilibrated with running buffer. […] Binding kinetics were analyzed using BIAevaluation software (V2.1; Pharmacia Biosensor, Uppsala, Sweden). The response representing the mass of bound monoclonal antibodies was measured in resonance units (RU). […] Binding kinetics of human anti-PSGL-1 monoclonal antibodies to the immobilized PSGL-1 19.ek.Fc was determined under partial mass transport limitations by triplicate injections at a concentration range (0-100 nM) onto the immobilized biotinlylated PSGL-1 19.ek peptide at a flow rate of 30 μL/min, following injection for two minutes. Dissociation was monitored for ten minutes at the same flow rate.
In general terms: Surface plasmon resonance follows binding to a sensor surface in real time, without labels.

The target of assay [2] is T2, human PSGL-1 on cells (human, UniProt Q14242 42-412).
T2 construct: whole, on cells; One molecule is used for HL-60 cells, recombinant CHO cells and blood cells; The cell type is named in each entry; also called native PSGL-1 expressed on HL-60 cells; recombinant CHO cells expressing human PSGL-1
T2 sequence (looked up): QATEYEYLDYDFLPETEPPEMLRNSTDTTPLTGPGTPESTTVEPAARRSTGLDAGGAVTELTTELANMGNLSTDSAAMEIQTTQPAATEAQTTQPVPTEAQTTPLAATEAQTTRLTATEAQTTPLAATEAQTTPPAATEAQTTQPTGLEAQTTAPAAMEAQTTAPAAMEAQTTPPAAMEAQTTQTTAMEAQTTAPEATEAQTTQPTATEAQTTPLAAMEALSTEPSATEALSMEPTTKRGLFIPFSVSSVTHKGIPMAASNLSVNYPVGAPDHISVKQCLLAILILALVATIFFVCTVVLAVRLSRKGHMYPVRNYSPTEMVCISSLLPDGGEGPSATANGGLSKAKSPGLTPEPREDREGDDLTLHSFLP
As to the kind of experiment: FACS on recombinant CHO cells expressing human PSGL-1 (data not shown).

In assay [3] the target is T2, human PSGL-1 on cells. As to the kind of experiment: FACS on HL-60 cells, scFv complexed with mouse anti-Myc, FITC secondary. On the procedure:
Characterization of the antibodies using FACS analysis. The binding specificity of the neutralizing antibodies was assessed by FACS analysis of HL-60 cells as well as in parent and recombinant CHO cells expressing human or rat PSGL-1 (data not shown). For FACS analysis, 0.5×10⁶ cells were incubated in 100 μL HBSS 2 mM CaCl₂, 1% fetal calf serum, NaN₃, containing 15 or 50 μg of the indicated scFvs complexed with 50 μg/ml mouse-anti-Myc-HRP (Roche Applied Sciences, Indianapolis, Ind.). The cells were washed and incubated with 1:100 anti-mouse FITC-conjugated secondary antibody (Roche Applied Sciences, Indianapolis, Ind.). Analysis was performed on viable cells of the mononuclear population with low forward and side scatter properties. As shown in FIG. 7(A) and FIG. 7(B), PSG3, PSG5, and PSG6 scFvs bind to native PSGL-1 expressed on HL-60 cells.

For assay [4], the target named is T3, peptide EYEYLDyDF (SEQ ID NO:45) (human).
T3 construct: Spot 55 of the peptide array; also called peptide 55
T3 peptide: Ac-EYEYLD[sY]DF-{βAla-cellulose membrane}
As to the kind of experiment: peptide spot array on cellulose membrane, HRP anti-Fc detection. The source says: Epitope mapping of PSG3. Fmoc-protected amino acids and cellulose membranes modified with polyethylene glycol were purchased from Intavis. Fmoc-protected β-alanine was purchased from Chem-Impex (Wood Dale, Ill.). The arrays were defined on the membranes by coupling a β-alanine spacer, followed by elongation of the peptide chain. Peptides were synthesized using standard DIC/HOBt coupling chemistry as described previously. (See, e.g., Molina et al., Pept. Res. 9:151-155 (1996) and Frank et al., Tetrahedron 48:9217-9232 (1992)). Activated amino acids were spotted using an Abimed ASP 222 robot. Washing and deprotection steps were done manually and the peptides were N-terminally acetylated after the final synthesis cycle.
Following peptide synthesis and side chain deprotection, the membranes were washed in methanol for 10 minutes and in blocker (1% casein in TBS) for 10 minutes. The membranes were then incubated with 1 μg/mL of […] in TBS for 1 hour with gentle shaking. The membranes were washed 4 times for 2 minutes in TBS and then probed with an HRP-conjugated anti-Fc antibody in blocker. After washing with TBS, bound protein was visualized using SuperSignal West reagent (Pierce) and a digital camera (AlphaInnotech FluorImager). Signal intensity reflects the amount of protein bound at each spot.

The record followed here is US20070160601A1 (published 2007).

Square brackets hold non-standard residues; d marks the D form. cellulose membrane = cellulose membrane solid support, attached through a beta-alanine spacer; sY = N[C@@H](Cc1ccc(OS(=O)(=O)O)cc1)C(=O)O; βAla = NCCC(=O)O

B1: PSG6 full-length bivalent antibody (human IgG4, lambda) (antibody, V domains shown)
VH: EVQLLESGGGLVRPGGSLRLSCAASGFTFSSYAMSWVRQAPGKGLEWVSAISGSGGSTYYADSVKGRFTISRDNSKNTLYLQMNSLRAEDTAVYYCARDKRLTYWGQGTMVTVSS
VL: QSVVTQPPSVSAAPGQKVTISCSGSSSNIGNNYVSWYQQLPGTAPKLLIYDNNKRPSGIPDRFSGSKSGTSATLGITGLQTGDEADYYCGTWDSSLSARVFGGGTKVTVLG
notes: also called human monoclonal antibody PSG6
In assay [1], B1 gave a Ka of roughly 6e+08 M⁻¹. The binding result with human PSGL-1 on cells [2] was “binds”.

B2: PSG3 scFv (scFv)
scFv: QVQLVQSGAEVKKPGSSVRVSCKASGGSFSSYGIHWVQQAPGQGLEWMGRIIPVLRIRNYAQKFHDRVTIDADTSTGTAYMELSSLTSDDTAVYYCAGSRQGVAPTGYWGQGTMVTVSSGGGGSGGGGSGGGGSAQAVLTQPSSLSASPGASASLTCNLRSGIDVGTYRIYWYQQKPGSPPQYLLRYKSDSDKQQGSGVPSRFSGTKDASANAGILLISGLQSEDEADYYCMIWHSNGWVFGGGTKLTVLGAAAHHHHHH
notes: Human scFv from a phage display library, purified from E. coli periplasm on NiNTA and detected with anti-Myc; also called scFv PSG3
As for B2, the binding result with human PSGL-1 on cells [3] was “binds”.

B3: PSG3 full-length bivalent antibody (human IgG4, lambda) (antibody, V domains shown)
VH: QVQLVQSGAEVKKPGSSVRVSCKASGGSFSSYGIHWVQQAPGQGLEWMGRIIPVLRIRNYAQKFHDRVTIDADTSTGTAYMELSSLTSDDTAVYYCAGSRQGVAPTGYWGQGTMVTVSS
VL: QAVLTQPSSLSASPGASASLTCNLRSGIDVGTYRIYWYQQKPGSPPQYLLRYKSDSDKQQGSGVPSRFSGTKDASANAGILLISGLQSEDEADYYCMIWHSNGWVFGGGTKLTVLG
notes: also called full length PSG3; human monoclonal antibody PSG3
For the molecule B3, the Ka in assay [1] is roughly 1.4e+09 M⁻¹. Also, the binding result (in assay [4]; in the assay with human PSGL-1 on cells [2]) was “binds” each time.

B4: PSG6 scFv (scFv)
scFv: EVQLLESGGGLVRPGGSLRLSCAASGFTFSSYAMSWVRQAPGKGLEWVSAISGSGGSTYYADSVKGRFTISRDNSKNTLYLQMNSLRAEDTAVYYCARDKRLTYWGQGTMVTVSSGGGGSGGGGSGGGGSAQSVVTQPPSVSAAPGQKVTISCSGSSSNIGNNYVSWYQQLPGTAPKLLIYDNNKRPSGIPDRFSGSKSGTSATLGITGLQTGDEADYYCGTWDSSLSARVFGGGTKVTVLGAAAHHHHHH
notes: Human scFv from a phage display library, purified on NiNTA and detected with anti-Myc; also called scFv PSG6
Regarding B4, in the assay with human PSGL-1 on cells [3], the binding result is reported as “binds”.
